Assay results as given in PMC8509813, “Effect of Structural Changes Induced by Deletion of ^54[sequence]^61 Sequence in αB-crystallin on Chaperone Function and Anti-Apoptotic Activity” (International Journal of Molecular Sciences, 2021).

Columns and labels:
luciferase = luciferase (UniProt P08659 1-550 = luciferase); experiment: cell-based or functional assay
lysozyme = lysozyme (UniProt P00698 19-147); experiment: cell-based or functional assay
[1] = target: the molecule itself; experiment: SEC-MALS; peak 2 (crystallin) of the mixtures with citrate synthase at 0 min, before incubation; TSK G5000PWXL column, MALS and quasi-elastic light scattering; homo-oligomer of ~20 kDa subunits

Sequence of lysozyme (P00698 19-147): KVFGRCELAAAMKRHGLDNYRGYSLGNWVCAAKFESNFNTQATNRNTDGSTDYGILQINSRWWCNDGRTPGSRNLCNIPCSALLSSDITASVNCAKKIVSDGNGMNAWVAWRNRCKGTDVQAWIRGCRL
Sequence of luciferase (P08659 whole entry): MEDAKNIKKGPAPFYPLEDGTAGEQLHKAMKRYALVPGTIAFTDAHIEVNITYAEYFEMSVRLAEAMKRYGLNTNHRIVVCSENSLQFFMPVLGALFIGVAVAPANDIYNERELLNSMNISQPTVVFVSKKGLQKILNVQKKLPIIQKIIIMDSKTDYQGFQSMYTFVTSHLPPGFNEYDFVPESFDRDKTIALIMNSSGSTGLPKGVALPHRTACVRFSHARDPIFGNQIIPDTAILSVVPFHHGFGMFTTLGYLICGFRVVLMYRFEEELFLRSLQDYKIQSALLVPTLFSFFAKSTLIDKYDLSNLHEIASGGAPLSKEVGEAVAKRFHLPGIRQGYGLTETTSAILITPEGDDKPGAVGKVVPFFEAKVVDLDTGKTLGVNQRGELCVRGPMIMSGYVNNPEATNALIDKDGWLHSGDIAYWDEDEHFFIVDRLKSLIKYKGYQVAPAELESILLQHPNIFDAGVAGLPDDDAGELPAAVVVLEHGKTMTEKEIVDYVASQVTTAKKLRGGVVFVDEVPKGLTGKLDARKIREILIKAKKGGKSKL

Binder | EC50: chaperone concentration that suppresses the aggregation of 1 µM luciferase (PBS, 37 °C, light scattering at 360 nm) by 50% (luciferase) | EC50: chaperone concentration that suppresses the aggregation of 10 µM lysozyme (2 mM DTT, PBS, 37 °C, light scattering at 360 nm) by 50% (lysozyme) | binding result [1]
αB-crystallin with residues 54–61 deleted (natural protein, human, UniProt P02511 1-175, looked up, No tag is mentioned; 306 kDa by MALS; also called αBΔ54–61; deletion mutant; source: E. coli BL21(DE3)pLysS, purified (ammonium sulfate precipitation, gel filtration twice)) MDIAIHHPWIRRPFFPFHSPSRLFDQFFGEHLLESDLFPTSTSLSPFYLRPPSDTGLSEMRLEKDRFSVNLDVKHFSPEELKVKVLGDVIEVHGKHEERQDEHGFISREFHRKYRIPADVDPLTITSSLSSDGVLTVNGPRKQVSGPERTIPITREEKPAVTAAPKK | 9 µM | 1.8 µM | binds
wild-type αB-crystallin (natural protein, human, UniProt P02511 1-175, looked up, αB-crystallin, human, wild type; subunit of ~20 kDa that forms a homo-oligomer; also called αB-wt; WT protein; source: E. coli BL21(DE3)pLysS, purified (ammonium sulfate precipitation, gel filtration twice)) MDIAIHHPWIRRPFFPFHSPSRLFDQFFGEHLLESDLFPTSTSLSPFYLRPPSFLRAPSWFDTGLSEMRLEKDRFSVNLDVKHFSPEELKVKVLGDVIEVHGKHEERQDEHGFISREFHRKYRIPADVDPLTITSSLSSDGVLTVNGPRKQVSGPERTIPITREEKPAVTAAPKK | 48 µM | 2.8 µM | binds
